One molecule from article doi:10.1101/2024.06.06.597810 (bioRxiv, 2024) can be followed below.

This assay concerns the target T1, SARS-CoV-2 spike stem helix peptide (residues 1146-1159), displayed on yeast (SARS-CoV-2).
T1 chain: DSFKEELDKYFKNH
The assay is described as follows: flow cytometry on cells. The following applies: partners not purified.

B1: S2P6 VH E1Q/VL E105D in scFv format (scFv, V domains shown)
VH: QVQLVQSGAEVKKPGASVKVSCKASGYTFTSQYMHWVRQAPGQGLEWIGIINPSGVHTSYAQKFQGRVTLTRDTSTSTLYMELSSLRSEDTAVYYCARGSPKGAFDYWGQGTLVTVSS
VL: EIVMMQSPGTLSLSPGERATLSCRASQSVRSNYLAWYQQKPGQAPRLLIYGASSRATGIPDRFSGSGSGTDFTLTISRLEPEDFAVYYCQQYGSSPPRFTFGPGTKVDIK
notes: not shown: HA, C-terminal, kept
Regarding B1, the binding result was “binds”.
